The record followed here is article PMC314469, “Protein Interaction Networks by Proteome Peptide Scanning” (PLoS Biology, 2004).

Chain of Sho1 SH3 (SHO1_YEAST), P40073 (P40073 295-366): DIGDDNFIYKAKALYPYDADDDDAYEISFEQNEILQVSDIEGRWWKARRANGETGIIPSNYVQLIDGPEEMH

The experiment addresses Sho1 SH3 (SHO1_YEAST), P40073. The experiment in a line: SPOT array.
Regarding LRRPIFPGRDYRHQ [218-231 cdc2+/CDC28 related kinase with positive role in conjugation], the normalised SPOT signal, Boehringer light units (BLU); mean over the file's lines of this peptide turned out to be 112. The figure for LLKPETPSKRLVIR [249-262 kinesin-related protein involved in mitosis] is 290; for LDDPFTPPRWLHHI it is 93; for LDYPKAPIKLTMKS [160-173 Hypothetical ORF] it is 175. MKAPKMPDKHRDNY [923-936 similar to RNA helicases]: the normalised SPOT signal, Boehringer light units (BLU); mean over the file's lines of this peptide came to 181. To LSKPSKPLKEIRFD [101-114 Hypothetical ORF] belongs 477; to LVQPVVPDKVFSFR [368-381 Hypothetical ORF], 46.1; to LPVPPPPVRPSISF [239-252 RNA polymerase II large subunit], 172.

Consider KYDPDNPNKDKLGT, for which the normalised SPOT signal, Boehringer light units (BLU); mean over the file's lines of this peptide was 159. LPPPIIPLRKYGHN [693-706 Pho85 kinase inhibitor]: the normalised SPOT signal, Boehringer light units (BLU); mean over the file's lines of this peptide turned out to be 109. Take LVQPNVPEKHNMST [144-157 Hypothetical ORF]: the normalised SPOT signal, Boehringer light units (BLU); mean over the file's lines of this peptide was determined as 182. To LPPPRSPNRPTLSD [363-376 Hypothetical ORF] belongs 91.7. To LSIPDLPLRIHNQT belongs 102; to LAPPLSPTKPSPLH [253-266 Hypothetical ORF], 106; to LNSPDLPERTKLRN [445-458 Septin homolog], 110.

Take LSLPRLPNKHHWPL [116-129 Hypothetical ORF]: the normalised SPOT signal, Boehringer light units (BLU); mean over the file's lines of this peptide was 2570. To LVTPEEPAKNKSER belongs 102. The figure for LIDPSTPDKAAKKD is 103; for LMPPDSPPRMTENT [1790-1803 "RAP1-interacting factor, involved in establishment of repressed chromatin"] it is 121; for LRLPEIPPKGDFDV [1327-1340 mitohcondrial RNA polymerase] it is 977. Take LTLPFGPVKSIWLS [189-202 glucosyltransferase]: the normalised SPOT signal, Boehringer light units (BLU); mean over the file's lines of this peptide was 96.7. The figure for MLIPNFPNKKLKLN is 415; for LPAPHRPEKYKERF [67-80 Hypothetical ORF] it is 173; for LQIPPLPLKLLTPV [307-320 encodes the cytoplasmic trifunctional enzyme C1-tetrahydrofolate synthase] it is 48.1. To MEYPFKPPKMQFDT [60-73 ubiquitin-conjugating enzyme] belongs 164; to MALPRTPLKTSTEE [276-289 Small regulatory subunit of Acetolactate synthase], 1100; to LRDPVIPIKLAAEK [2564-2577 translational activator of GCN4 through activation of GCN2 in response to starvation], 122.

For the molecule KWEPSTPQRNGPIL [158-171 Hypothetical ORF], the normalised SPOT signal, Boehringer light units (BLU); mean over the file's lines of this peptide is 175. The figure for LSSPSLPPKVNATN [325-338 Guanosine diphosphatase of Golgi membrane] is 88.

Regarding LRKPRAPMRNVIIT [449-462 cytochrome oxidase assembly factor], the normalised SPOT signal, Boehringer light units (BLU); mean over the file's lines of this peptide turned out to be 184. For LIPPGFPTKNYPPG [185-198 Hypothetical ORF], the normalised SPOT signal, Boehringer light units (BLU); mean over the file's lines of this peptide was 80.2. LRSPNTPRRLRKTL [198-211;312-325;376-389;96-109 Hypothetical ORF;Y'-helicase protein 1] came in with a normalised SPOT signal, Boehringer light units (BLU); mean over the file's lines of this peptide of 200.

In the case of LLPPTDPFRRKHEQ [63-76 ribosomal protein (weak similarity)], the normalised SPOT signal, Boehringer light units (BLU); mean over the file's lines of this peptide worked out at 155. The figure for MSLPVTPVKSKVSS [50-63 Putative participant in 3' mRNA processing] is 284; for LSTPSAPAKINNYS [605-618 Hypothetical ORF] it is 67; for LIMPIYPYRLVSTI [525-538 potential membrane glycoprotein with strong similarity to Vth2 and Pep1/Vps10] it is 338.

In the case of LPVPQLPPKLLVYP [17-30 RNA polymerase II-associated protein], the normalised SPOT signal, Boehringer light units (BLU); mean over the file's lines of this peptide is 16.2. The figure for LTSPKNPIKSVTKF [569-582 translation termination factor eRF3] is 148. On to LHGPFKPVKSSNGE [25-38 Hypothetical ORF], for which the normalised SPOT signal, Boehringer light units (BLU); mean over the file's lines of this peptide amounted to 61.6.
